Measured values from article PMC2132522.
pKd: −log10 of the molar value.

What was measured:
[1] = target: G-actin (rabbit muscle) (rabbit) (UniProt P68135)
[2] = target: NBD-labeled G-actin (rabbit muscle) (rabbit) (UniProt P68135); experiment: other fluorescence titration
[3] = target: pyrenyl-labeled F-actin (rabbit muscle) (rabbit) (UniProt P68135); experiment: other fluorescence titration
[4] = target: F-actin (rabbit muscle) (rabbit) (UniProt P68135); experiment: co-sedimentation

- association to barbed ends in low ionic strength F buffer (1 mM MgCl2) [1]: 20 fold
- pKd [2]: 7.60
- stoichiometry N [2]: 1
- Ka [3]: > 1e+06 M⁻¹
- stoichiometry N [3]: 1
- stoichiometry N [4]: 1
Substance: Recombinant ADF1 from Arabidopsis thaliana (natural protein)
